Experimental findings from publication PMC10229228, “Structural insights into a regulatory mechanism of FIR RRM1–FUSE interaction” are described below.

Holding throughout (conditions): protein: recombinant; tags: N-terminal His6, removed by TEV; single strand
In data set [1] the target is T1, FIR RRM1-2 Y115F (UniProt Q9UHX1-2 101-293, Y115F). The data set is described as follows: X-ray crystallography (1.65 A); ITC: 25 mM HEPES pH 7.5, 150 mM NaCl, 0.5 mM TCEP, 20 C; protein 160-240 uM titrated into ssDNA 40-50 uM.
Data set [2] concerns the target T2, FIR RRM1-2 WT (UniProt Q9UHX1-2 101-293). The experiment in a line: X-ray crystallography (2.05 A); ethylene glycol contacts the bound guanine; ITC: 25 mM HEPES pH 7.5, 150 mM NaCl, 0.5 mM TCEP, 20 C; protein 160-240 uM titrated into ssDNA 40-50 uM.
Data set [3] concerns the target T2, FIR RRM1-2 WT. The experiment in a line: ITC; ITC: 25 mM HEPES pH 7.5, 150 mM NaCl, 0.5 mM TCEP, 20 C; protein 160-240 uM titrated into ssDNA 40-50 uM. For orientation: Isothermal titration calorimetry measures the heat released or taken up as one component is titrated into another.
The target in data set [4] is T1, FIR RRM1-2 Y115F. Described as above.

T2 sequence (Q9UHX1 118-310): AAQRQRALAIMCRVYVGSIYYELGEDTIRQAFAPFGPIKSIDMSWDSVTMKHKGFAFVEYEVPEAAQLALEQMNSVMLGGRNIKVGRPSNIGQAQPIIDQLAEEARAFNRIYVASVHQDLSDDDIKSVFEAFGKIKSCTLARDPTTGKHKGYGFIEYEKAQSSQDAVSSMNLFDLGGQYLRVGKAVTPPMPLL
T1 sequence (Q9UHX1 118-310 Y132F): as the sequence (Q9UHX1 118-310) above, with Y15F counted along it

B1: FUSE 15-nt (ssDNA)
DNA: TTTTTATTTTGTGTT
With B1, the binding result with FIR RRM1-2 Y115F [1] and with FIR RRM1-2 WT [2] was “binds” each time.

B2: TTATTTT (ssDNA)
DNA: TTATTTT
By Kd is commonly meant the free concentration of one partner at which half of the binding sites on the other are occupied at equilibrium, for simple one-to-one binding. Regarding B2, in the data set with FIR RRM1-2 WT [3], the Kd stood at 11 µM.

B3: TAATTTT (ssDNA)
DNA: TAATTTT
On to B3, for which, in the data set with FIR RRM1-2 Y115F [4], the Kd was roughly 6 µM.

B4: TTGTTTT (ssDNA)
DNA: TTGTTTT
As to B4, the Kd with FIR RRM1-2 WT [3] was determined as 2 µM.
